From patent US20260158142A1 (published 2026)

Target: T1, human amyloid beta (Aβ42), T cell epitope peptide on H2-IAb (mouse)
T1 peptide: KLVFFAEDVGSNKGA
Assay: multimer staining

B1: Aβ-Th1 TCR (TCR, V domains shown)
Valpha: QQQVRQSPQSLTVWEGETAILNCSYENSAFDYFPWYQQFPGEGPALLISILSVSNKKEDGRFTIFFNKREKKLSLHIADSQPGDSATYFCAGGDYANKMIFGLGTILRVRP
Vbeta: DPKIIQKPKYLVAVTGSEKILICEQYLGHNAMYWYRQSAKKPLEFMFSYSYQKLMDNQTASSRFQPQSSKKNHLDLQITALKPDDSATYFCASSQDRSYNSPLYFAAGTRLTVT
B1: recognises.
